Literature values as cited in paper PMC4449288.

Target: mAKAPβ (Homo sapiens) (UniProt Q13023)
Test: SPR

Chain of UniProt Q13023 (Q13023 whole entry): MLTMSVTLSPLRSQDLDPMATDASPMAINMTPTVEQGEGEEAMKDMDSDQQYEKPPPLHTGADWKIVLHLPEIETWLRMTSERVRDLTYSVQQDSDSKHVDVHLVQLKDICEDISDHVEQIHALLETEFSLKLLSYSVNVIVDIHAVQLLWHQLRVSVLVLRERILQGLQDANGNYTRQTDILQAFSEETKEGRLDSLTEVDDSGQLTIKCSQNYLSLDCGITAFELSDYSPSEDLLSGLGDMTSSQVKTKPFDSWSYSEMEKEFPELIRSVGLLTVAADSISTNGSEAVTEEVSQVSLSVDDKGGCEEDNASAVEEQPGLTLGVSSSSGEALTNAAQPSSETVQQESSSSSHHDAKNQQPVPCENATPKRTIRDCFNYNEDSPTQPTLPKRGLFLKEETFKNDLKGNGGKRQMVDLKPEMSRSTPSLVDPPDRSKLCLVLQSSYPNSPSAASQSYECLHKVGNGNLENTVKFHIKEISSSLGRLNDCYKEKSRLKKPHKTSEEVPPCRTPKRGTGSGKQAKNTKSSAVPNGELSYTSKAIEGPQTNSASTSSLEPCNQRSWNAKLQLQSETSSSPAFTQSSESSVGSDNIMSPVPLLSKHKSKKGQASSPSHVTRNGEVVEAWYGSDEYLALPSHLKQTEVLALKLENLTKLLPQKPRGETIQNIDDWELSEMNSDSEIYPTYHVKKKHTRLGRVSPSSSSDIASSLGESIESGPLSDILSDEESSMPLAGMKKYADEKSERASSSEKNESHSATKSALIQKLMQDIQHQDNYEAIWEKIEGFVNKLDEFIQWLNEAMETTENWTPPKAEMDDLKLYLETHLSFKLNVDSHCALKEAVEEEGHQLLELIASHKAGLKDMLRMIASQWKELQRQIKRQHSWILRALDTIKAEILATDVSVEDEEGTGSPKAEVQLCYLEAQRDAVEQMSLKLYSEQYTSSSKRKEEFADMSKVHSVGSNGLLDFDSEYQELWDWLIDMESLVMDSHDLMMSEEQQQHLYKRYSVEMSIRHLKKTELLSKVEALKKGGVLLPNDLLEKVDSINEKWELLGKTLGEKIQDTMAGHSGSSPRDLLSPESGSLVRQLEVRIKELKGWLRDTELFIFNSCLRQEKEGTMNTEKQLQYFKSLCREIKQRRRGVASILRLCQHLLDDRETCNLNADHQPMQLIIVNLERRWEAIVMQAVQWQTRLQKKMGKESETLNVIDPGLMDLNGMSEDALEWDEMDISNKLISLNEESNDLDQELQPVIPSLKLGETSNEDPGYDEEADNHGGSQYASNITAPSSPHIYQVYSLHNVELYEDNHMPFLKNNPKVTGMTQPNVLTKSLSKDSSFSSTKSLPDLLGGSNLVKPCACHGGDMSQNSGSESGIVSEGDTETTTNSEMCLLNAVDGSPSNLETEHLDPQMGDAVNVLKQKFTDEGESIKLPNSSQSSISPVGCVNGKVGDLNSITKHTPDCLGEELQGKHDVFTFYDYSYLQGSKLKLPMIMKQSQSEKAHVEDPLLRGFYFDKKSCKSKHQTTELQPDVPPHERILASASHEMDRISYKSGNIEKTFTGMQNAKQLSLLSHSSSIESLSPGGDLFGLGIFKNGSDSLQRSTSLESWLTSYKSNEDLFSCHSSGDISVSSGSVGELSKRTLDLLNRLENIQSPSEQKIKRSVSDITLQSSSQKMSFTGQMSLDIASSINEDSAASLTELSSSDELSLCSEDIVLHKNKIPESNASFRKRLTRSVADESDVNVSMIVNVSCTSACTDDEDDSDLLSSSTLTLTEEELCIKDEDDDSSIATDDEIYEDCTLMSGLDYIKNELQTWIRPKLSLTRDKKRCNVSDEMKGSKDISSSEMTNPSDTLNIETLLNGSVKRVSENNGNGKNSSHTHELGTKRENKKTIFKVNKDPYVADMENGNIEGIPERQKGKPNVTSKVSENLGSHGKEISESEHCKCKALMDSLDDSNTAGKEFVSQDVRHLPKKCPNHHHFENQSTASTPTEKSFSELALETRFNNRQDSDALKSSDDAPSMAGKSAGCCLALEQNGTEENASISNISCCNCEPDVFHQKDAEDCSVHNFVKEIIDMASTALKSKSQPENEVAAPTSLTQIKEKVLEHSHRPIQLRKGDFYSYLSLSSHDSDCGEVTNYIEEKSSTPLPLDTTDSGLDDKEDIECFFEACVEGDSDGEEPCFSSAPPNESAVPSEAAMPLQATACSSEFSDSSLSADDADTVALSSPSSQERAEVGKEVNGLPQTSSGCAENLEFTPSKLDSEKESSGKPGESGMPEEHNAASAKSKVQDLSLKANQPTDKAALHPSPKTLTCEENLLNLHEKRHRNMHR

Kd: 1.6 nM
Substance: RSK3 (from UniProt Q15349)
